Reference: the supplement of paper PMC9170038

Tests used:
MS2 coat protein [1] = assay: apparent KD of MS2 coat protein, switch OFF state (with FMN for OFF switches, without FMN for ON switches); designed switch direction (-1 OFF switch, 1 ON switch): 1; higher = weaker reporter binding; conditions: FMN input: 0 or 200 uM; Eterna round: R93 (includes R88 designs)
Outline: (§1)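 Values are apparent KD, taken as the median for each design of fits to normalised binding curves from individual clusters. The designed RNA switches were transcribed on-chip from Illumina sequencing clusters and exposed to SNAP-549-labelled MS2 coat protein at twofold increasing amounts from 0.7 or 1.5 nM to 3 µM. Titration used 100 mM Tris-HCl pH 7.5, 80 mM KCl and 4 mM MgCl2, without or with constant ligand.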

MS2 coat protein [2] = assay: apparent KD of MS2 coat protein, switch ON state; designed switch direction (-1 OFF switch, 1 ON switch): 1; higher = weaker reporter binding; conditions: FMN input: 0 or 200 uM; Eterna round: R93 (includes R88 designs)
Outline: as §1

| Sequence | apparent KD of MS2 coat protein (MS2 coat protein [1]) [nM] | apparent KD of MS2 coat protein (MS2 coat protein [2]) [nM] |
| --- | --- | --- |
| AAAAAACAUGAGGAUCACCCAUGUGAAAAUAUGGGAGGAUAUACAAAGACGAGAGUCAAAGUAGAAGGCCUAAAAA [Mat - Same State 1 - Eli mod - D87] | 139 | 26.6 |
| GAGGACGUAGGAUAGGAUAUGUGAAUAAUUACAUGAGGAUCACCCAUGUCCAUUUAUAUGGGAACAUAGAAGGGUUUUCGUUAUC [SameState2 Malc#40] | 387 | 646 |
| AAAUAAAUGACUGAGGAUAUAUCGAAGAAGACAUGAGGAUCACCCAUGUGAUAAUAAAAAGGGUGGUAGAAGGUAGUCAACAAAC [Mod 8 of Pariah 4 by Hyphema in Round 1] | 122 | 133 |
| AAAAGACAUGAGGAUCACCCAUGUAAAAACAUAGGAGGAUAUGUCGUGAAAAAAGACUUGGCAGAAGGCCUAUGUC [SS1 - 44] | 30.7 | 19.7 |
| AGAAAUAAAAGGCAGGAUAUCCAAAAGAAAACAUGAGGAUCACCCAUGUAAAAGAAAAUAAAGUGGGAGAAGGGCCAAAAUAAAG [My design (73%) + Space bases] | 36.5 | 11.7 |
| AGCACGUGAUUGGAGGAUAUGCAGUAAGCAACAUGAGGAUCACCCAUGUCUGACCCUGAAAACCAGCAGAAGGCCGAUACAACCA [SS2-1.7] | 13 | 10.2 |
| AGAAAACAUGAGGAUCACCCAUGUGACAAUAUGGGAGGAUAUACAAAGACGAAAGUCGAAGUAGAAGGCCUAAAGA [Garnet 52] | 69.7 | 26.1 |
| GAAAAACAUGAGGAUCACCCAUGUGUAAAUAUGGGAGGAUAUACAAAGACGUAAGUCAGAGUAGAAGGCCUAAAAG [Garnet 93] | 176 | 29 |
| AGCACGGGAUUGGAGGAUAUGUUGUUUGCAACAUGAGGAUCACCCAUGUCUGAGGCUGAAAAGCAGCAGAAGGCCGAUACAACCA [SS2-1.2] | 367 | 43.8 |
| AUAAAACAUGAGGAUCACCCAUGUAGAAAUAUGGGAGGAUAUACUAGAUCGAAAGAUCUAGUAGAAGGCCUUUAUG [JL Mod of Eli 5] | 49.3 | 45.4 |
| AACAAUCUAUCUGAGGAUAUCAUGUCAAAGACAUGAGGAUCACCCAUGUACCAGGAAACUGGAUAUGAGAAGGCAGAUAGAUUGA [SS2: 1119] | 204 | 16.1 |
| CAUCACGCGCCUAAGGAUAUGUCUCACAAGACAUGAGGAUCACCCAUGUAGAAUAAAUAAAUGAUGCAGAAGGUGGAGCGCAUGC [Gerixeza] | 517 | 134 |
| AGGAAACAUGAGGAUCACCCAUGUAAAAAUAUGGAAGGAUAUGGAAACACGAAAGUGAAACCAGAAGGUUCAAAAA [77%, Mat - Mod of Eli, 22] | 24.7 | 18.5 |
| AAUAAACAUGAGGAUCACCCAUGUGGUGGCCCAUGAGGAUAUCCAUGUACAUUGUACACAGGAGAAGGCAUAGCCA [Tioredes] | 27 | 119 |
| AUAAAACAUGAGGAUCACCCAUGUAGACACGAUGGAGGAUAUACUAGAUCGAAAGAUCUAGUAGAAGGCCGACGUA [Mat - Same State 1 - JL mod - D95] | 22.6 | 18.4 |
| AACAAUCUAUCUGAGGAUAUCAUGUGAAAGACAUGAGGAUCACCCAUGUCGCAGGAAACUGCUCAUGAGAAGGCAGAUAGAUUGA [SS2: 1127] | 12.5 | 15.6 |
| AGGAAACAUGAGGAUCACCCAUGUAAAAAAAUGGGAGGAUAUACUAGAAGAAACAAAAUAGUAGAAGGCCUAAAAA [75%, Ex sub1, 27] | 74.9 | 18.9 |
| UAUAGACAUGAGGAUCACCCAUGUAGAAUUAUGGGAGGAUAUACAAAGACGAGAGUCAGAGUAGAAGGCCUAGGAU [salish99-ss1-154] | 63.7 | 22.2 |
| UGUUCGAGUAGUGAGGAUAUUCAUGGGCCCACAUGAGGAUCACCCAUGUAAAGGACCGGGCCGAAGGAGAAGGCGCGUAAAAUUA [Esenan] | 73.3 | 28.9 |
| AAGAAACAUGAGGAUCACCCAUGUGAGAUAAACACAGGAUAUGCGAAAAGAAAUAAAUAAGCAGAAGGGUGAAGAA [Mat - Same State 1 - Tesla mod - 70] | 62.6 | 26.4 |
| ACGGUCAAGUGUGAGGAUAUCCAGGCUCCCACAUGAGGAUCACCCAUGUCUUAAAGGGCGUAAAGGGAGAAGGUACGAACGCCAC [Vesolees] | 45.3 | 33.2 |
| AUAUAUAUAAGGAAGGAUAUCCAAAAAUAAACAUGAGGAUCACCCAUGUCCAUAAAGAAUAAAUGGGAGAAGGUCCAUAUAUAUA [77%, More Tesla, 9] | 123 | 24.2 |
